Test results: publication PMC5584586

Legend:
Assay in all cases: SPR
[1] = target: human FcγRI, HIS-tagged (human) (UniProt P12314)
[2] = target: human FcγRIIA 167R, HIS-tagged (human) (UniProt P12318)
[3] = target: human FcγRIIIA 176F, HIS-tagged (human) (UniProt P08637)
[4] = target: human FcγRIIIA 176V, HIS-tagged (human) (UniProt P08637)
[5] = target: human FcγRIIA 167H, HIS-tagged (human) (UniProt P12318)
[6] = target: human FcγRIIB, HIS-tagged (human) (UniProt P31994)
Chain of UniProt P31994 (P31994 43-310): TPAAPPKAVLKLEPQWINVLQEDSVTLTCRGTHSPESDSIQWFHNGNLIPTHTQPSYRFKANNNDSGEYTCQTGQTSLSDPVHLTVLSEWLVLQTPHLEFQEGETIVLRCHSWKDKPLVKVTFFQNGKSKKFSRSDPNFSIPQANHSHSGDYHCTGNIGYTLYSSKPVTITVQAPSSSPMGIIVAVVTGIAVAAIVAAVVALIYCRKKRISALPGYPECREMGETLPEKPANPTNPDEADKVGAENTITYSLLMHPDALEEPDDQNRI

Chain of UniProt P12314 (P12314 16-374): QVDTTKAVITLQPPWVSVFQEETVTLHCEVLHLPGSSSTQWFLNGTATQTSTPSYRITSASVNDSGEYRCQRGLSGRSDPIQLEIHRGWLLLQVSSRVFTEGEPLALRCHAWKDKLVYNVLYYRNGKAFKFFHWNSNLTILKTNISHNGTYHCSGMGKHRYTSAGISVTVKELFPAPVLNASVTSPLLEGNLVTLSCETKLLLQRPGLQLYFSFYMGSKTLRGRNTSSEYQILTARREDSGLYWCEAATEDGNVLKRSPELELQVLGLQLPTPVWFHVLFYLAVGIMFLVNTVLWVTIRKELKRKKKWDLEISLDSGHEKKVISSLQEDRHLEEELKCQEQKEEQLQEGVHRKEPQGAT

Row | Substance | Kd [1] | Kd [2] | Kd [3] | Kd [4] | Kd [5] | Kd [6]
1 | TA99 hIgG1 T299A/K326I/A327Y/L328G, aglycosylated (antibody) | 243 nM | 2490 nM | 1240 nM | 452 nM | 605 nM | 2100 nM
2 | human IgG1 used as a control on Biacore (antibody) |  |  |  | 348 nM | 1100 nM | 6500 nM
3 | TA99 hIgG1 S298G/T299A, aglycosylated (antibody) |  | > 10000 nM |  |  | 996 nM | 6450 nM
4 | TA99 hIgG1 wild-type, glycosylated (from UniProt P01857 1-399) (antibody) |  | 8020 nM | 4540 nM | 1700 nM | 1150 nM | 3520 nM
5 | TA99 hIgG1 N297Q, aglycosylated (antibody) | 295 nM |  |  |  |  | 

Second part, the substance after the results:

Row | Kd [1] | Kd [2] | Kd [3] | Kd [4] | Kd [5] | Kd [6] | Substance
6 | 5 nM | 2730 nM | 1810 nM | 1040 nM |  |  | TA99 hIgG1 N297D/S298T/K326I/A327Y/L328G, aglycosylated (antibody)
7 | 29 nM | > 10000 nM | 2230 nM | 1050 nM |  |  | TA99 hIgG1 N297D/S298A/K326I/A327Y/L328G, aglycosylated (antibody)
8 |  |  | 1680 nM | 1790 nM |  |  | TA99 hIgG1 N297H/S298A/K326I/A327Y/L328G, aglycosylated (antibody)
